From article PMC9745668 (ACS chemical biology, 2021)
Changes are numbered by the printed parent chain. Numbers in names are those of the source.

T1: IPK from Candidatus methanomethylophilus alvus (CMA) (Methanomethylophilus alvi, UniProt M9SEQ1)
T1 sequence (M9SEQ1 1-259): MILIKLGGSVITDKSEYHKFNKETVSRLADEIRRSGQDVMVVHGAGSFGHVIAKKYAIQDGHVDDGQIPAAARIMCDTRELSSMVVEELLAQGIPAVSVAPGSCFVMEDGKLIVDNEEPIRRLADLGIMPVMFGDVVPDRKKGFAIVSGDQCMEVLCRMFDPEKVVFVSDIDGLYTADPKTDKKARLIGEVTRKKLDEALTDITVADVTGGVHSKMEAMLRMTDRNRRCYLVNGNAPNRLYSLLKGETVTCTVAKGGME

B1: IPK from Candidatus methanomethylophilus alvus (CMA) (Candidatus Methanomethylophilus alvi Mx1201; I74A) (protein)
chain: T1 sequence (M9SEQ1 1-259) with I74A
B2: IPK from Candidatus methanomethylophilus alvus (CMA) (Candidatus Methanomethylophilus alvi Mx1201; T209S) (protein)
chain: T1 sequence (M9SEQ1 1-259) with T209S
B3: IPK from Candidatus methanomethylophilus alvus (CMA) (Candidatus Methanomethylophilus alvi Mx1201; I74A/V208A) (protein)
chain: T1 sequence (M9SEQ1 1-259) with I74A, V208A
B4: IPK from Candidatus methanomethylophilus alvus (CMA) (Candidatus Methanomethylophilus alvi Mx1201; V208A) (protein)
chain: T1 sequence (M9SEQ1 1-259) with V208A
B5: IPK from Candidatus methanomethylophilus alvus (CMA) (Candidatus Methanomethylophilus alvi Mx1201; T209A) (protein)
chain: T1 sequence (M9SEQ1 1-259) with T209A
B6: IPK from Candidatus methanomethylophilus alvus (CMA) (Candidatus Methanomethylophilus alvi Mx1201; I146A) (protein)
chain: T1 sequence (M9SEQ1 1-259) with I146A

How the values were obtained:
[1] = molecular target: T1, IPK from Candidatus methanomethylophilus alvus (CMA); experiment: X-ray crystal structure, […] Å; type: binding; conditions: alkyl-P site, monomer A, partial occupancy with IP
[2] = substrate: O=P(O)(O)OCc1ccccc1; experiment: PK-LDH coupled assay, A340; type: biochemical, Methanomethylophilus alvi; conditions: 2 mM ATP, 5 mM MgCl2, 25 mM Tris pH 7.8, 37 °C
[3] = substrate: C=C(C)CCOP(=O)(O)O; experiment: PK-LDH coupled assay, A340; type: biochemical, Methanomethylophilus alvi; conditions: 2 mM ATP, 5 mM MgCl2, 25 mM Tris pH 7.8, 37 °C
[4] = substrate: Cc1ccc(COP(=O)(O)O)cc1; experiment: PK-LDH coupled assay, A340; type: biochemical, Methanomethylophilus alvi; conditions: 2 mM ATP, 5 mM MgCl2, 25 mM Tris pH 7.8, 37 °C

Molecule	X-ray crystal structure, 2.5 Å [1]	Km [2] [mM]	kcat [2] [s⁻¹]	kcat/Km [2] [M⁻¹ s⁻¹]	Km [3] [mM]	kcat [3] [s⁻¹]	kcat/Km [3] [M⁻¹ s⁻¹]	Km [4] [mM]	kcat [4] [s⁻¹]	kcat/Km [4] [M⁻¹ s⁻¹]
C=C(C)CCOP(=O)(O)OP(=O)(O)O [IPP]	electron density for both pairs of reagents (IP/ATP and IPP/ADP) can be modeled	–	–	–	–	–	–	–	–	–
B1	–	0.11 ± 0.03	0.41 ± 0.02	4000	0.22 ± 0.02	42 ± 2	190000	0.08 ± 0.02	1.05 ± 0.07	13000
B2	–	–	–	–	0.037 ± 0.008	7.2 ± 0.3	200000	–	–	–
B3	–	–	–	–	0.75 ± 0.08	4.9 ± 0.2	6500	–	–	–
B4	–	–	–	–	0.075 ± 0.010	5.4 ± 0.1	72000	–	–	–
B5	–	–	–	–	0.05 ± 0.02	0.038 ± 0.002	800	–	–	–
B6	–	–	–	–	0.16 ± 0.02	68 ± 2	430000	–	–	–
